The record followed here is US11492376B2, “Toxoplasma gondii GRA8-derived recombinant peptides and composition for preventing or treating cancer comprising the same” (Industry—University Cooperation Foundation Hanyang …, priority 2019, dated 2022).

One series concerns HCT116 cells. Kind of series: MTT assay of cell viability, HCT116 cells. In kind it is cell-based, human. The method, then:
FIGS. 1A, 1B and 1C: confirms that rGRA8 treatment increases HCT116 cell death by mitochondria pathways [(A and B). Various cancer cells were incubated with WT rGRA8 (20 μg/ml) and its mutants for indicated times and then cell viability was measured by MTT analysis (upper) and αATP5A1, αSIRT3 or αActin immunoblotting (lower) was performed. […] The cells were incubated with WT rGRA8 for indicated times and subjected to IP with αLys-AC or αHis and IB with αATP5A1, αATP5C1, αSIRT3, αPGC-1, αPKCα or αActin. Data represents five independent experiments with similar results. Significant differences were determined by comparison with rVector treatment (** P<0.01; *** P<0.001)].
(§1) FIGS. 4A, 4B, 4C, 4D and 4E show HCT116 cell death by rATRAM-GRA8-M/AS-induced mitochondrial activation [(A and B) HCT116 cells were incubated with WT rGRA8 or rATRAM-GRA8-M/AS and its mutants for indicated times, and then cell viability was measured with an MTT assay. […] The cells were stimulated with rATRAM-GRA8-M/AS for 1 day and subjected to enzymatic activity of OXPHOS V, and (C) MitoTracker fluorescence signals were assessed by flow cytometry. (D) A bar graph indicates a mitochondrial mass (MFI), and (E) the mtDNA content of BMDM was measured by quantitative real-time PCR. The mtDNA content was normalized by nuclear DNA. Significant differences were determined by comparison with control treatment (** P<0.01; *** P<0.001). Data represents five independent experiments with similar results].
As described in Non-Patent Document 1, the cell viability for a non-treated group was measured by an MTT assay. After incubation for an indicated time, 5 mg/ml of a 3-(4,5-dimethyl thiazol-2-yl)-2,5-diphenyltetrazoliumbromide (MTT) solution was added to a medium, and the cells were further incubated for 4 hours. Subsequently, all of the medium was removed, the same volume of a dimethyl sulfoxide (DMSO) solution was added for 15 minutes to dissolve formazan. Using a UV/VIS spectrophotometer, each well of a plate was measured at 540 nm to measure relative cell viability.

Series [1] is described as follows: Pharmacokinetics and drug distribution in HCT116 tumor-bearing mice (His immunoblotting of organs). In kind it is in vivo, BALB/c mouse. How it is done:
The […] were administered into the mouse by intraperitoneal injection once (left) or twice (right), and then the mouse was sacrificed on day 5. His expression was evaluated by immunoblotting (IB) in various organs from a mouse. The whole cell lysate was used for IB with anti-actin. Data represents four independent experiments with similar results. (B) The schematic diagram of an rGRA8 WT (upper)-treated xenograft model. […] The length and width of the tumors were measured using calipers, and a tumor volume was calculated every third day for 30 days. Individual tumor volumes from each mouse in each group were averaged and graphed over days after inoculation. Statistical significance was determined by two-way analysis of variance (ANOVA) with a Tukey's post-test; * P<0.05, *** P<0.001, compared with rVector. Each group included 10 mice. Data represents two independent experiments with similar results.

For the next series, the system named is BMDM. Description: MTT assay of cell viability, bone marrow-derived macrophages (BMDM). The format is cell-based, mouse. The settings on record: 20 μg/ml. The method, then: FIGS. 2A, 2B, 2C, 2D and 2E show the design and expression of an ATRAM-conjugated multifunctional GRA8 peptide (rATRAM-G8-M/AS)-based protein [(A) Subcellular fractionation of 293T cells was performed by expression of GST-GRA8 WT or incubation of WT rGRA8 with (1 μg/ml) BMDM and treatment with several Tat-GRA8 peptides for 6 hours (10 μM). Mitochondrial and cytosolic fractions were fractionated and analyzed for expression of GST by IB. The purity of the fractions was confirmed by blotting for VDAC (mitochondrial protein) and actin (cytosolic protein). (B) A mammalian GST-GRA8 construct was transfected into 293T cells for 12 hours with V5-ATP5A1 or Flag-SIRT3, and treated with several Tat-GRA8 peptides (10 μM) for 6 hours. The 293T cells were used for GST pulldown, followed by IB with αV5 or αFlag. WCL was used for IB with αGST, αV5, αFlag or αActin. […] (D) 6×His-rATRAM-GRA8-M/AS purified with bacteria and its mutants were analyzed by Coomassie blue staining (left) or αHis immunoblotting (IB; right). (E) BMDM was incubated with rATRAM-GRA8-M/AS and its mutant (20 μg/ml) for indicated times, and cell viability was then measured by an MMT assay. […]
As described in Non-Patent Document 1, the cell viability for a non-treated group was measured by an MTT assay. […] Using a UV/VIS spectrophotometer, each well of a plate was measured at 540 nm to measure relative cell viability.
Background: Tetrazolium dyes change colour on reduction, which living cells bring about.

The next series addresses T1, complex V OXPHOS (Homo sapiens, UniProt P25705).
T1 construct: rATRAM-GRA8-M/AS enhanced complex V OXPHOS activity, mitochondrial mass and mitochondrial DNA content via SIRT3 and PKCα in HCT116 cells; endogenous in cells; host or cells: HCT116 cells
Kind of series: Mitochondria complex V OXPHOS activity assay in HCT116 cells. In kind it is cell-based. The method, then: as §1
The activity of complex V was measured using a MitoTox Complex V OXPHOS Activity Microplate Assay kit manufactured by Abcam (ab109907, MA, Cambridge) according to the manufacturer's instructions. The activity of complex V was measured by monitoring the change in absorbance at 340 nm for 1 hour at 30° C. Oligomycin (Sigma, 04876) was used as a positive control for the assay.

[2] abbreviates: tumor-bearing mice, intraperitoneal injection.

B1: (GLAGLAGLLGLEGLLGLPLGLLEGLWLGLELEGN)2-GG-ATATTTTTTR-GG-YRFTVQTTQN (protein)
chain: GLAGLAGLLGLEGLLGLPLGLLEGLWLGLELEGNGLAGLAGLLGLEGLLGLPLGLLEGLWLGLELEGNGGATATTTTTTRGGYRFTVQTTQN
modifications: His tag; rATRAM-G8-M/AS
For the molecule B1, the “fold improvement of IC50 compared with rGRA8 (cell death of cancer cell line)” value in the series with HCT116 cells (HCT116 cells) is 200 fold. Besides, in the series on HCT116 cells (HCT116 cells, MTT (FIG. 4A)), the “IC50 (HCT116 cell death)” value amounted to 0.1 µg/mL. For the same molecule, the “fold improvement of IC50 compared with rGRA8 (cell death of cancer cell line)” value in the series with HCT116 cells (HCT116 cells, listed as rATRAM-G8-M/AS) is “approximately 200 fold”. The “cell death in HCT116 cells” value in the series on HCT116 cells (dose response, MTT (FIG. 4A)) is on record as “induced cell death in HCT116 cells in a dose-dependent manner”. In addition, the cancer cell targetability result in series [1] (immunoblotting, FIG. 5) is “excellent cancer cell targetability”. Besides, in series [1] (setting [2]), the disappearance from tumor entry was “gradually disappeared by day 3” and the “time the tumor location was maintained” value is listed as “up to 2 days”. The “location of protein among organs” value in series [1] (tumor-bearing mice, intraperitoneal injection, His immunoblotting) is “located in tumor cells”. Further, the “cytotoxicity in macrophages compared with vector control” value in the series with BMDM was “No significant cytotoxic differences”. The “complex V OXPHOS activity” value with complex V OXPHOS (HCT116 cells, 1 day, via SIRT3 and PKCα) is reported as “enhanced”. In the series with complex V OXPHOS (summary statement, FIG. 4), the “mitochondrial activity (Oxphos V activity, mitochondrial mass and ATP production) in cancer cells” value is listed as “induced”.
